Measured values from PMC7509637 (Advanced Science, 2020).
Entries after “also recorded” stand apart in the source; their conditions may differ.

Experiments:
Aβ [1] = molecular target: T1, Aβ (Homo sapiens, UniProt P05067); test: Circular dichroism spectroscopy, secondary structure; settings: incubation with Aβ, Figure S7
T1 construct: purchased Anaspec Inc
Method: Solutions of 200 µL, at similar molar ratios as for ThT assay, were prepared and incubated at 37 °C. CD spectra for different samples at 0, 12 and 48 h were measured with a CD spectrophotometer (Jasco) from 190 to 240 nm (1 nm step size). The percentage secondary structure was calculated by the CD data via Dichroweb analysis with parameters of Contin/reference set 4.^[ ^95 ^]

Aβ [2] = molecular target: T1, Aβ; test: ThT kinetic assay of Aβ fibrillization (seeding with FapC species, Aβ seeds, bLgS); assay type: biochemical; settings: 37 °C, n = 3; for effect on Aβ fibrillization (ThT): Aβ 50 × 10^−6 M, seeds/FapC species 5 × 10^−6 M, ThT fluorescence ex 445/em 485 nm; for effect on rate constant k of Aβ (in words): 5 × 10^−6 M with Aβ 50 × 10^−6 M, FapCS *, p < 0.05, FapC monomer and fibrils **, p < 0.005
Method: FapC seeds (FapCS) were produced by FapC fibrils of three different ages. The FapC monomers were produced as described^[ ^45 ^] and stored in 6 M GdmCl. Prior to fibrillization, the FapC monomers were purified via a PD10 desalting column. FapC monomers (1 mg mL^−1 or 40 × 10^−6 M) were incubated in deionized water at 37 °C for 1 week to produce mature fibrils and at 37 °C or 25 °C for 4 d to obtain young fibrils. Deionized water was used to make FapC fibrils as it is convenient to transfer the samples to other experimental conditions, i.e., buffered Aβ solution or PBS for in vivo microinjection. However, bacterial amyloids like FapC and curli can make amyloids over a range of conditions.^[ ^93 ^] FapCS were produced by sonicating an aqueous solution of FapC fibrils (10 × 10^−6 M) at 20 power of a probe sonicator (Sonics Vibracell: 750 watts and 20 kHz) for 2 min with 1 s on/off cycle. For in vitro cross‐seeding experiments, 50 × 10^−6 M of Aβ monomers were incubated with 5 × 10^−6 M of FapCS (10:1 molar ratio, Aβ:FapCS) at 37 °C. bLg amyloids were synthesized by heating of bLg monomers (80 °C, pH 2) of 10 mg mL^−1 solution for 24 h. Prior to the production of bLgS, the bLg amyloid solution was brought to pH 7 and then sonicated, similar to FapC, to generate bLgS.
Aβ (Anaspec Inc., purity ≥ 95%) was dissolved in 100 µL of hexafluoro‐2‐propanol (HFIP) and incubated at room temperature for 3 h. The acquired aliquots of this solution were freeze dried and stored at −20 °C for further experimentation. […] For the ThT kinetic assay, a 100 µL of aqueous solution containing Aβ (50 × 10^−6 M), FapCS or bLgS (5 × 10^−6 M) and ThT dye (100 × 10^−6 M) was incubated (37 °C) in a 96‐well plate. The ThT fluorescence (excitation: 445 nm/ emission: 485 nm) was recorded at specified time intervals for 50 h. Kinetic parameters (rate constant k, half‐life t 1/2 and lag‐time) were calculated as described.^[ ^94 ^] Briefly, kinetic curves were fitted to a sigmoidal curve =y0+ymax−y0/1+e^−(t−t1/2)k , where y 0 and y max are initial and final ThT fluorescence values, allowing us to calculate lag time = t 1/2 − 2/k.

Aβ monomers = test: Isothermal titration calorimetry (ITC); assay type: binding; settings: Aβ 200 × 10^−6 M into 20 × 10^−6 M seeds, 0.1% NH4OH, 25 °C
Method: ITC (Malvern MicroCal iTC200) was used to explore the interaction between Aβ monomers and oligomers (Aβo) with FapCS. Sample solutions were degassed at 25 °C while stirring (100 rpm). Aβ (200 × 10^−6 M, 40 µL) was filled into the syringe while FapCS or bLgS (20 × 10^−6 M, 200 µL) were filled in the cell (coin shaped). 0.1% NH4OH buffer solution was used for both solutions. Aβ was injected into the cell at an injection volume of 2 µL at the duration of 4 s and with a spacing of 180 s. First injection was 0.2 µL for 0.4 s duration and a total of 16 injections were programed. The heat exchange was recorded with a Microcal analysis (origin v7) software. The heat of dilution (Aβ against buffer) was subtracted from the interaction heat of samples. The acquired curves were fitted to a sequential binding model and thermodynamic parameters of binding energy (ΔH), free energy (ΔG), and entropic factor (TΔS) were calculated. Aβo for the ITC experiments was prepared by incubating Aβ aqueous solution (200 × 10^−6 M) at 4 °C for 48 h.^[ ^65 ^]

Aβ [3] = molecular target: T1, Aβ; test: Static light scattering (SLS) of Aβ fibrillar growth; assay type: biochemical; settings: ratio as for ThT assay, Malvern Zetasizer Nano, n = 3
Method: Increases in the size of Aβ in the presence and absence of FapCS or bLgS were monitored by SLS. Solution of Aβ with FapCS or bLgS, at a similar ratio as for the ThT assay, was prepared and incubated. SLS measurements were performed at different time intervals using a Malvern Zetasizer Nano. The parameters were fixed at 7 for attenuator and 4.20 mm for cell position. Quartz cells with low volume capacity (100 µL) were used. The light scattering intensities (kilo counts per sec) and the refractive indices of the samples, buffer alone and toluene were measured.

Aβ [4] = molecular target: T1, Aβ; test: TEM imaging of Aβ with FapC species or bLgS; settings: 12 h incubation, uranyl acetate negative stain
Method: (§1) Aβ incubated in the presence or absence of FapCS, FapC monomers, FapC fibrils or bLgS were subjected to TEM imaging. After incubation for 12 h, a drop of sample was applied on a glow‐discharged carbon‐coated copper grid. After 1 min, the sample was blotted and then negatively stained with uranyl acetate (1%) for 30 s. The dried grid was then imaged with a Technei F20 TEM at 200 kV. For AFM, a drop of sample was placed on freshly cleaved mica surface and rinsed with water after 2 min and dried with pressurized air. The sample was scanned with an AFM (Nanoscope VIII Multimode Scanning Force Microscopes, Bruker), covered with an acoustic hood to minimize the vibrational noise. Images were acquired under the tapping mode with a silicon nitride cantilever (Bruker). AFM images were processed with Nanoscope Analysis 1.5 software to flatten the background and to calculate the statistical parameters.

Aβ fibrils = test: AFM of fibrils, FiberApp statistical analysis
Method: as §1

**Q.** With “bLgS: seeds from whey protein β‐lactoglobulin amyloids by sonication [reference compound]” as the molecule, how does the “effect on secondary structure (in words)” value (Aβ [1]) read?
**A.** did not induce β‐sheet formation in Aβ; also recorded: α‐helical and random‐coil structures of bLgS were slightly increased

**Q.** What about the “effect on Aβ fibrillization (ThT)” value (Aβ [2]) of the same molecule?
**A.** did not render any acceleration of Aβ fibrillization

**Q.** And the “binding to Aβ by ITC (in words)” value (Aβ monomers)?
**A.** Insubstantial binding

**Q.** What about the “Aβ fibrillar growth by SLS” value (Aβ [3]) of the same molecule?
**A.** did not render any acceleration of Aβ fibrillization

**Q.** And the TEM observation (Aβ [4])?
**A.** did not render any acceleration of Aβ fibrillization

B1: FapC monomers: monomeric FapC, purified via a PD10 desalting column (protein)
chain: GNEGGWHPPKPNPQSNNKGGATALVVDTQQNYNNKVSNFGTLNNASVSGSIKDASGNVGVNVAAGDNNQQANAAALASADASFVFGTATASTSVLQSGYGNTLNNYSNPNTASLSNSANNVSGNLGVNVAAGNFNQQKNDLAAAVSNGQYSTAGSAASQTSTGNTTVNSANYAYGGTYVSLKLNADGSYKGTSDQIGDVYLDTWEGQTHPGGSNTGHIDVDSQAQGAKDLNHDGGAFAFKEKGDVDLKGTVSGFIPAIVGFKTPVTNNASLSNSLQNVSGNVGVNIAAGGGNQQSNSLSIAAGCSSCPAGGESLGF
**Q.** How did the “effect on rate constant k of Aβ (in words)” value (Aβ [2]) turn out when B1 was run?
**A.** significantly suppressed

**Q.** And the “effect on Aβ fibrillization (ThT)” value (Aβ [2])?
**A.** lacked such acceleratory effect

**Q.** What about the TEM observation (Aβ [4]) of the same molecule?
**A.** appeared to aggregate on top of Aβ fibrils

B2: FapC fibrils: FapC incubated in deionized water at 37 °C for 1 week, nonsonicated fibrils (protein)
chain: B1 chain
**Q.** Which “effect on rate constant k of Aβ (in words)” value (Aβ [2]) does the source give for B2 here?
**A.** significantly suppressed

**Q.** What about the “effect on Aβ fibrillization (ThT)” value (Aβ [2]) of the same molecule?
**A.** lacked such acceleratory effect; also recorded: significantly suppressed

**Q.** What about the TEM observation (Aβ [4]) of the same molecule?
**A.** did not coat FapC fibrils

**Q.** And the “pitch size of fibrils” value (Aβ fibrils; FiberApp)?
**A.** 26 nm

**Q.** And the fibril diameter (Aβ fibrils; from fibril heights, mean ± SD)?
**A.** 3.6 ± 1.0 nm

B3: FapCS derived from younger FapC fibrils: seeds from FapC fibrils fibrillated for 4 d at 37 °C and 25 °C (protein, UniProt Q9I2F0 25-340, looked up)
Functional amyloid subunit …: B1 chain
modifications: sonicated fibril seeds
notes: seeds from FapC fibrils fibrillated for 4 d at 37 °C and 25 °C
**Q.** For B3, which “effect on Aβ fibrillization (ThT)” value (Aβ [2]) is on record?
**A.** accelerated Aβ fibrillization (Figure S3, Supporting Information), but less than the seeds derived from mature FapC fibrils
